Measured values from the Human Domainome abundance scans (Beltran et al. 2025).

B1: Dynamin-binding protein, residues 242 to 304; numbered along this chain, Q6XZF7 (parent)
chain: EEPGTYGVALYRFQALEPNELDFEVGDKIRILATLEDGWLEGSLKGRTGIFPYRFVKLCPDTR

Variants of: B1
Assay: abundance fitness (aPCA) (normalised: wild type 0, dead -1); higher = more abundant; growth selection in yeast, the domain comes from the species named
Details: Homo sapiens

Abundance fitness: each site, then its substitutions
P18: Q -0.042, H -0.291, S -0.113, L -0.42, D -0.044, F -0.659, E -0.006, V -0.332, N -0.275, A -0.188, W -0.424, M -0.419, C -0.412, Y -0.473, R -0.04, G -0.492, K -0.336, T -0.333
G26: P -1.07, V -0.844, M -1.02, L -0.598, A -0.86, C -0.334, H -0.718, N -0.563, R -0.866, I -0.744, T -0.831, F -0.682, S -0.674, E -1.01, Q -0.061, Y -0.847, D -0.568, K -0.643
E24: L -0.491, N -0.032, D 0.009, M -0.313, P -0.75, A -0.593, Y -0.423, I -0.444, C -0.414, F -0.301, T -0.278, W -0.438, Q -0.024, V -0.471, H -0.199, G -0.596, R -0.445
A33: L -0.644, F -0.726, C -0.291, H -0.021, R 0.033, E -0.578, Q -0.188, N 0.017, D -0.24, P -0.429, S 0.043, K 0.005, T -0.009, V -0.445, G -0.201, W -0.671, Y -0.568, I -0.703, M -0.438
E17: H 0.229, R 0.151, W -0.488, F -0.513, G 0.072, K 0.391, Y -0.234, T -0.157, V -0.4, C -0.259, N 0.158, S -0.062, I -0.783, A 0.029, Q 0.189, L -0.011, P -1.01
D22: R -0.185, W -0.624, N -0.04, T -0.054, K -0.062, V -0.682, G -0.02, C -0.125, Y -0.108, I -0.913, E 0.043, M -0.301, S 0.101, A 0.25, F -0.016, P 0.157, Q 0.148
D27: S -0.695, C -0.811, R -0.79, H -0.927, K -0.902, F -0.799, Q -0.723, L -0.642, W -0.485, G -0.776, E -0.316, I -0.786, Y -0.587, A -0.426, V -0.934, M -0.537, N -0.424, T -0.656
K28: I -0.278, L -0.57, N -0.418, D -0.799, Y -0.519, T -0.282, P -0.553, R -0.05, E -0.157, M -0.529, S -0.535, H -0.044, Q -0.604, A -0.7, G -0.711, V -0.205, F -0.596
L16: E -0.027, V 0.117, Q 0.284, P -0.697, C 0.09, W -0.501, R 0.316, K -0.077, T 0.344, H 0.141, Y -0.137, G 0.073, F -0.067, S 0.29, M 0.242, N 0.35, A 0.187, I 0.03, D 0.047
A15: E -0.734, F -0.982, M -0.639, S 0.131, Q -0.787, N -0.588, W -0.637, H -0.472, G 0.019, L -0.626, P -0.355, T 0.06, Y -0.774, V -0.608
I29: R -0.649, F -0.561, V -0.533, E -0.721, Q -0.955, D -0.685, N -0.845, M -0.735, C -0.839, G -0.738, T -0.639, H -0.634, W -0.823, A -0.702, Y -0.808, S -0.776, L -0.573, P -0.35
T34: E -0.038, D -0.114, A -0.33, F -0.063, C -0.323
L21: K -0.744, H -0.469, M -0.852, S -0.542, V -0.619, P -0.782, R -0.839, G -0.96, Q -0.455, T -0.522, F -0.771, I -0.636, C -0.851, D -1.03, E -0.643, A -1.01, Y -1.03, N -0.843
N19: T -0.223, L -0.52, A -0.18, V -0.563, C -0.518, M -0.494, G -0.055, Q -0.188, Y -0.299, I -0.644, S -0.275, K -0.227, R -0.167, P -0.704, F -0.297
R30: L -0.148, P -0.15, F -0.462, C -0.367, K 0.268, E -0.328, T -0.644, N -0.306, Y -0.398, A -0.155, V -0.73, S -0.41, M -0.651, W -0.921, I -0.454
E20: L -0.067, N -0.227, Y 0.059, G -0.246, V -0.703, F 0.155, M 0.023, C -0.014, S -0.468, K -0.068, A -0.163, P -1.03, D -0.631, I -0.65, T 0.06, R -0.258, Q 0.069
V25: S -0.448, T -0.412, G -0.539, P -0.14, F -0.573, R -0.223, K 0.095, Q -0.548, N -0.736, A -0.089, D -0.899, I -0.142, L -0.933, M -0.169, E -0.475, Y -0.463, C -0.328
F23: S -0.527, H -0.787, L -0.136, G -0.682, E -0.94, Q -0.767, W -0.63, A -0.585, V -0.334, P -1.09, I -0.165, Y -0.688, M -0.227, K -0.13, D -0.867, C -0.717, T -0.775, R -0.684, N -0.805
I31: K -0.85, F -0.926, C -0.527, S -0.879, L -0.702, P -0.862, Q -0.084, G -0.512, E -0.587, A -1.03, T -0.722, Y -0.91, M -0.755, N -0.85, R -0.883, V -0.463, D -0.743, W -0.901, H -0.448
L32: T -0.312, N -0.097, A -0.866, P -0.687, Y -0.744, V -0.176, Q -0.243, I -0.19, H -0.008, G -0.635, R -0.592, W -0.784, F -0.652, K -0.588, D -0.495, M -0.394, C -0.657
